Results taken from paper PMC4558601, “Architecture of the Synaptophysin/Synaptobrevin Complex: Structural Evidence for an Entropic Clustering Function at the Synapse” (Scientific Reports, 2015).

Biological target: the molecule itself
Experiment: SEC + other: SDS-PAGE densitometry and western blot of the co-purified native complex; native SYP/VAMP2 complex purified from calf brain synaptic vesicles in high cholesterol; Sephacryl S-300 in 20 mM NaH2PO4 pH 6.8, 0.2% Brij-35, 0.1% cholesterol, 40 mM sucrose; fractions analysed by SDS-PAGE, silver stain, western blot, densitometry

B1: synaptophysin (SYP), native, from calf brain (natural protein, bovine (endogenous in calf brain), UniProt P20488 1-313, looked up)
chain: MLLLADMDVVNQLVAGGQFRVVKEPLGFVKVLQWVFAIFAFATCGSYSGELQLSVDCANKTKSDLNIEVEFEYPFRLHEVYFEAPTCQGDPKKIFLVGNYSSSAEFFVTVAVFAFLYSMGALATYIFLQNKYRENNKGPMLDFLATAVFAFMWLVSSSAWAKGLSDVKMATDPENIIKGMHVCHQPGNTCKELRDPVTSGLNTSVVFGFLNLVLWVGNLWFVFKETGWAAPFLRAPPGAPEKQPAPGDAYGQAGYGQGPGGYGPQDSYGPQGGYQPDYGQPASSGGGGYGPQGDYGQQGYGPQGAPTSFSNQM
notes: synaptophysin (SYP), bovine, native protein isolated from calf brain synaptic vesicles together with VAMP2; 4-pass integral membrane protein; Endogenous protein, co-purified with VAMP2 as a native complex; source: purified from calf brain synaptic vesicles (Triton X-100 extract with cholesterol; hydroxyapatite/celite flow through, anion exchange, size exclusion)
stoichiometry N: 6
